Each block holds one molecule with its values, some of them ahead of it.
Tests used:
Y2-GPCR = target: T1, Y2-GPCR (Homo sapiens, UniProt P49146); experiment: competitive binding assay against PYY22-36 on Y2-GPCR
T1 sequence (P49146 1-381): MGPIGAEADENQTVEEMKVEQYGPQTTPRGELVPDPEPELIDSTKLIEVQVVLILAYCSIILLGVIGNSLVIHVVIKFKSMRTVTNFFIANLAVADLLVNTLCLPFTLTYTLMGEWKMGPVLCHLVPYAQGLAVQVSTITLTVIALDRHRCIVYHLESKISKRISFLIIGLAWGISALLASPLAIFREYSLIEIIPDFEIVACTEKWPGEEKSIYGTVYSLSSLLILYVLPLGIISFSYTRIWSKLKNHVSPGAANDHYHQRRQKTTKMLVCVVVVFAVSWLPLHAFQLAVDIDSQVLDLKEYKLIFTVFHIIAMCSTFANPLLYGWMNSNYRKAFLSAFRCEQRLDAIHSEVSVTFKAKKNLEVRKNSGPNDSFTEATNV
Procedure: The peptides derived from the proteins AtRGP2, OsRGP1 and OsBiP were synthesized in 5 mg quantities at and purified to a purity of above about 90%. The peptides were tested in a competitive binding assay against PYY^22-36 for binding to the GPCR receptor.
In-vitro receptor-based screening of receptor subtypes Y1, Y2, and Y3 was performed according to protocols known in the art. (Munoz et al., Mol. Cell. Endocrinol. 107, 77 (1995), Fuhlendorf et al., PNAS 87, 182 (1990)) Screening of OsBiP, ZmRGP1 and AtRGP1 was conducted on Y2-GPCR as described above using known methods and activity was measured as the percentage of inhibition of binding of the endogenous ligand PYY^22-36 sequence. The PYY^22-36 sequence was used as a positive control. Of the peptides tested, the one derived from AtRGP1 protein was able to inhibit binding of PYY^22-36 by 20-40% when 10 μM concentration of both the PYY^22-36 and OsBiP peptide were used in the binding assay. […] In vivo tissue-based screening on cultures of rat colon cells can be carried out according to known protocols, such as described in Dumont et al., Eur. J. Pharmacol. 238, 37 (1993).

Y2 GPCR receptor = target: T2, Y2 GPCR receptor; experiment: competitive receptor binding assay on Y2-GPCR against PYY22-36, 10 µM of both peptides
T2 sequence (P49146 whole entry, species assumed, looked up): T1 sequence (P49146 1-381)

[1] = target: T3, CCK-B GPCR receptor (human) (UniProt P32239); experiment: competitive receptor binding assay against CCK-8 on CCK-B receptor, synthetic peptide at 10 µM
T3 sequence (looked up): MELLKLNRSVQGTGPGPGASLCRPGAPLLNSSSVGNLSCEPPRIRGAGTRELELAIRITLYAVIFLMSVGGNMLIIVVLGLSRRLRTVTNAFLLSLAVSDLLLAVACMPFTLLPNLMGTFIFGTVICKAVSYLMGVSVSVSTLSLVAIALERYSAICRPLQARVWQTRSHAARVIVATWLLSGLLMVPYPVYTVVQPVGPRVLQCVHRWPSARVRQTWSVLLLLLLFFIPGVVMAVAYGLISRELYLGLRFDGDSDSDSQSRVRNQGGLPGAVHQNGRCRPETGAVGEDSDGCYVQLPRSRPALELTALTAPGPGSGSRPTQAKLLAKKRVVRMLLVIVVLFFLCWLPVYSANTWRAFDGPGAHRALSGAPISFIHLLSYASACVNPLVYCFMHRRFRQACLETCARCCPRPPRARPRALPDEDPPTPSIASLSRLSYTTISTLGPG

- binding to the Y2 receptor (Y2-GPCR; same technique, result in words): shown to bind the Y2 receptor
Molecule: FDGVDFSEPLTRARF [OsBIP]

- percentage of inhibition of binding of the endogenous ligand PYY22-36 (Y2-GPCR; 10 μM concentration of both PYY22-36 and test peptide, Y2-GPCR): 20-40%
Molecule: YSCRYFGYLVSKKKY (listed as Arabidopsis thaliana) [AtRGP1, peptide derived from Arabidopsis thaliana amylogenin protein RGP]

- percent inhibition of binding of PYY22-36 (Y2 GPCR receptor): 20 to 40%
Molecule: YSCRYFGYLVSKKKY [AtRGP2 peptide fragment (peptide derived from Arabidopsis thaliana amylogenin protein RGP)]

- percent inhibition of binding of CCK-8 [1]: 5%
Molecule: PWMDFKELQEFK [Oryza sativa oryzacystatin hydrolyzed with trypsin - synthetic peptide 3 (…)]

Source: patent US20070286935A1, “Bioactive Compositions, Natural Methods of Producing Them and Computational Methods for Designing Natural Production Processes” (NESTEC S.A., priority 2004, published 2007)
